Test results taken from US20200270347A1 (Hoffmann-La Roche, published 2020).

Columns and labels:
[1] = molecular target: T1, EGFRvIII expressed on the cell surface (CHO-EGFRvIII, DK-MG, U87MG-EGFRvIII cells) (human, UniProt P00533 298-1210); assay: flow cytometry on CHO-EGFRvIII cells, IgG
T1 construct: The cell line of each result is named under assay; Species is stated for the U87 transfectant (human EGFRvIII protein) and the entry; also called EGFRvIII positive cells

EGFRvIII-ECD avi his [2] = molecular target: T2, EGFRvIII-ECD avi his (human); assay: SPR, ECD antigen captured with anti-His, single injection of antibody at 500 nM
T2 construct: Extracellular domain of human EGFRvIII fused to an Avi-tag and a His-tag at the C-terminus; the entry is the whole construct; also called recombinant EGFRvIII; EGFRvIII antigen

[3] = molecular target: EGFRwt ECD antigen (His-tagged, captured with anti-His) (human, UniProt P00533 25-645); assay: as above
[4] = molecular target: T1, EGFRvIII expressed on the cell surface …; assay: flow cytometry on U87MG-EGFRvIII cells, IgG PGLALA
EGFRvIII-ECD avi his [5] = molecular target: T2, EGFRvIII-ECD avi his; assay: SPR, PGLALA IgG captured with anti-PGLALA antibody, EGFRvIII-ECD avi his as analyte, 1:1 Langmuir, 25° C.
[6] = molecular target: T3, wild-type EGFR on MKN-45 cells (human, UniProt P00533 25-1210); assay: flow cytometry on MKN-45 cells (wild-type EGFR)
T3 construct: MKN-45 is the wild-type EGFR line used to exclude crossreactivity; also called EGFRwt

[7] = molecular target: T1, EGFRvIII expressed on the cell surface …; assay: flow cytometry on CHO-EGFRvIII cells, TCB
[8] = molecular target: T1, EGFRvIII expressed on the cell surface …; assay: flow cytometry on U87MG-EGFRvIII cells, fluorescently labelled anti-human Fc secondary antibody
[9] = molecular target: T4, heterodimer of human CD3 delta and CD3 epsilon ectodomains fused to a human Fc domain with knob-into-hole … (human); assay: SPR, relative active concentration after stress
T4 construct: Each entry is the whole fusion chain (ectodomain, stalk, Fc, Avi-tag); also called recombinant CD3; recombinant human CD3

[10] = molecular target: T4, heterodimer of human CD3 delta and CD3 …; assay: SPR, TCB captured with anti-PGLALA antibody, CD3 antigen as analyte, 1:1 Langmuir; CD3opt; human CD3
EGFRvIII-ECD avi his [11] = molecular target: T2, EGFRvIII-ECD avi his; assay: SPR, TCB captured with anti-Fc antibody, EGFRvIII-ECD avi his as analyte, 1:1 fit; CD3opt
[12] = molecular target: T5, heterodimer of cynomolgus CD3 delta and CD3 epsilon ectodomains fused to a human Fc domain with … (cynomolgus); assay: SPR, TCB captured with anti-PGLALA antibody, CD3 antigen as analyte, 1:1 Langmuir; CD3opt; cynomolgus CD3
T5 construct: Each entry is the whole fusion chain; also called Cynomolgus CD3 epsilon stalk-Fc(knob)-Avi / Cynomolgus CD3 delta stalk-Fc(hole)-Avi

[13] = molecular target: T4, heterodimer of human CD3 delta and CD3 …; assay: SPR, TCB captured with anti-PGLALA antibody, CD3 antigen as analyte, 1:1 Langmuir; CD3orig; human CD3
EGFRvIII-ECD avi his [14] = molecular target: T2, EGFRvIII-ECD avi his; assay: SPR, TCB captured with anti-Fc antibody, EGFRvIII-ECD avi his as analyte, 1:1 fit; CD3orig

B1: EGFRvIII antibody P056.021 IgG1 PGLALA (antibody, V domains shown)
VH: EVQLVQSGAEVKKPGESLKISCKGSGYSFDSYWIAWVRQMPGKGLEWMGVIHPYDSDTRYSPSFQGQVTISADKSISTAYLQWSSLKASDTAMYYCARVSRSSYAFDYWGQGTLVTVSS
VL: not shown
notes: Human IgG1 with P329G L234A L235A; also called P056.021 (parental)
EC50 [1]: 16.5 nM
response units (EGFRvIII-ECD avi his [2]): > 50 RU
response units [3]: < 5 RU
EC50 (read off the curve) [4]: ~4 nM
Kd (EGFRvIII-ECD avi his [5]): 35 nM
binding result [6]: no binding (tested: about 140 nM)

B2: EGFRvIII TCB P056.021 (CD3orig) (bispecific antibody, V domains shown)
VH 1: EVQLVQSGAEVKKPGESLKISCKGSGYSFDSYWIAWVRQMPGKGLEWMGVIHPYDSDTRYSPSFQGQVTISADKSISTAYLQWSSLKASDTAMYYCARVSRSSYAFDYWGQGTLVTVSS
VL 1: not shown
VH 2: not shown
VL 2: QAVVTQEPSLTVSPGGTVTLTCGSSTGAVTTSNYANWVQEKPGQAFRGLIGGTNKRAPGTPARFSGSLLGGKAALTLSGAQPEDEAEYYCALWYSNLWVFGGGTKLTVL
notes: also called parental EGFRvIII TCB P056.021; P056.021 EGFRvIII TCB with CD3orig
EC50 [7]: 13 nM
binding result [6]: no binding (tested: about 140 nM)

B3: EGFRvIII TCB CD3opt (EGFRvIII binder P063.056) (bispecific antibody, human IgG1, kappa, L234A L235A)
heavy 1: not shown
heavy 2: EVQLVQSGAEVKKPGESLKISCKGSGYSFDSYWIAWVRQMPGKGLEWMGVIHPYDSDTRYSPSFQGQVTISADKSISTAYLQWSSLKASDTAMYYCARVSRSSYAFDYWGQGTLVTVSSASTKGPSVFPLAPSSKSTSGGTAALGCLVEDYFPEPVTVSWNSGALTSGVHTFPAVLQSSGLYSLSSVVTVPSSSLGTQTYICNVNHKPSNTKVDEKVEPKSCDKTHTCPPCPAPEAAGGPSVFLFPPKPKDTLMISRTPEVTCVVVDVSHEDPEVKFNWYVDGVEVHNAKTKPREEQYNSTYRVVSVLTVLHQDWLNGKEYKCKVSNKALGAPIEKTISKAKGQPREPQVCTLPPSRDELTKNQVSLSCAVKGFYPSDIAVEWESNGQPENNYKTTPPVLDSDGSFFLVSKLTVDKSRWQQGNVFSCSVMHEALHNHYTQKSLSLSP
light 1: not shown
light 2: EVQLLESGGGLVQPGGSLRLSCAASGFQFSSYAMNWVRQAPGKGLEWVSRIRSKYNNYATYYADSVKGRFTISRDDSKNTLYLQMNSLRAEDTAVYYCVRHTTFPSSYVSYYGYWGQGTLVTVSSASVAAPSVFIFPPSDEQLKSGTASVVCLLNNFYPREAKVQWKVDNALQSGNSQESVTEQDSKDSTYSLSSTLTLSKADYEKHKVYACEVTHQGLSSPVTKSFNRGEC
notes: 2+1 IgG CrossFab, inverted, with charge modifications; also called EGFRvIII TCB P063.056 with CD3opt; 2+1 format
binding result [8]: binds
binding activity to CD3 after 2 weeks at pH 7.4, 37° C., relative to 2 weeks at pH 6, -80° C. [9]: > 90%
Kd [10]: 30 nM
Kd (EGFRvIII-ECD avi his [11]): 6 nM
Kd [12]: 20 nM

B4: EGFRvIII TCB CD3orig (EGFRvIII binder P063.056) (bispecific antibody, human IgG1, kappa, L234A L235A)
heavy 1: not shown
heavy 2: EVQLVQSGAEVKKPGESLKISCKGSGYSFDSYWIAWVRQMPGKGLEWMGVIHPYDSDTRYSPSFQGQVTISADKSISTAYLQWSSLKASDTAMYYCARVSRSSYAFDYWGQGTLVTVSSASTKGPSVFPLAPSSKSTSGGTAALGCLVEDYFPEPVTVSWNSGALTSGVHTFPAVLQSSGLYSLSSVVTVPSSSLGTQTYICNVNHKPSNTKVDEKVEPKSCDKTHTCPPCPAPEAAGGPSVFLFPPKPKDTLMISRTPEVTCVVVDVSHEDPEVKFNWYVDGVEVHNAKTKPREEQYNSTYRVVSVLTVLHQDWLNGKEYKCKVSNKALGAPIEKTISKAKGQPREPQVCTLPPSRDELTKNQVSLSCAVKGFYPSDIAVEWESNGQPENNYKTTPPVLDSDGSFFLVSKLTVDKSRWQQGNVFSCSVMHEALHNHYTQKSLSLSP
light 1: not shown
light 2: EVQLLESGGGLVQPGGSLRLSCAASGFTFSTYAMNWVRQAPGKGLEWVSRIRSKYNNYATYYADSVKGRFTISRDDSKNTLYLQMNSLRAEDTAVYYCVRHGNFGNSYVSWFAYWGQGTLVTVSSASVAAPSVFIFPPSDEQLKSGTASVVCLLNNFYPREAKVQWKVDNALQSGNSQESVTEQDSKDSTYSLSSTLTLSKADYEKHKVYACEVTHQGLSSPVTKSFNRGEC
notes: 2+1 IgG CrossFab, inverted, with charge modifications; also called EGFRvIII TCB P063.056 with CD3orig
EC50 (read off the curve) [8]: ~9 nM
Kd [13]: 40 nM
Kd (EGFRvIII-ECD avi his [14]): 6 nM
